Data as given in the Human Domainome abundance scans (Beltran et al. 2025).
± gives the uncertainty stated by the source.

B1: Calcium-binding protein 2, residues 155 to 219; numbered along this chain, Q9NPB3 (parent)
chain: RELRDAFREFDTNGDGRISVGELRAALKALLGERLSQREVDEILQDVDLNGDGLVDFEEFVRMMS

Variants of: B1
Assay: abundance fitness (aPCA) (normalised: wild type 0, dead -1); higher = more abundant; growth selection in yeast, the domain comes from the species named
Details: Homo sapiens

RELRDAFREFDTNGDGRISVGELRAALKALLGERLSQREVDEILQDVDLNGDGLVDFEEFVRMWS and RELRDAFREFDTNGDGRISVGELRAALKALLGERLSQREVDEILQDVDLNGDGLVDFEEFVRMYS are within error of each other in abundance fitness: 0.104 ± 0.071 for the first, 0.209 ± 0.088 for the second.

RELRDAFREFDTNGDGRISVGELRAALKALLGERLSQREVDEILQDVDLNGDGLVDFEEFVRMVS gave an abundance fitness of 0.157 ± 0.095.
